Here are results for six molecules from article PMC5996891, “Staphylococcus aureus Phenol-Soluble Modulins α1–α3 Act as Novel Toll-Like Receptor (TLR) 4 Antagonists to Inhibit HMGB1/TLR4/NF-κB Signaling Pathway” (Frontiers in Immunology, 2018).

Test [1] concerns the target recombinant human TLR4 protein (ectodomain, Glu24-Lys631) (human) (UniProt O00206). The experiment in a line: SPR; Biacore T200; TLR4 immobilised on a CM5 chip by amine coupling; HMGB1 or synthetic PSMs in 10 mM acetate buffer (pH 5.2) run over at gradient concentrations; 25°C, 30 µL/min; apparent KD.
The target of test [2] is T1, recombinant human TLR4 protein (ectodomain, Glu24-Lys631) (human, UniProt O00206 24-631).
T1 construct: human toll-like receptor 4, Glu24-Lys631, the ectodomain with no transmembrane domain; followed by a C-terminal Ser and 10-His tag; also called hTLR4; toll-like receptor 4; source: bought: R&D Systems (Catalog Number 1478-TR); not shown: His10 (after a Ser), C-terminal, kept
T1 sequence (O00206 24-631): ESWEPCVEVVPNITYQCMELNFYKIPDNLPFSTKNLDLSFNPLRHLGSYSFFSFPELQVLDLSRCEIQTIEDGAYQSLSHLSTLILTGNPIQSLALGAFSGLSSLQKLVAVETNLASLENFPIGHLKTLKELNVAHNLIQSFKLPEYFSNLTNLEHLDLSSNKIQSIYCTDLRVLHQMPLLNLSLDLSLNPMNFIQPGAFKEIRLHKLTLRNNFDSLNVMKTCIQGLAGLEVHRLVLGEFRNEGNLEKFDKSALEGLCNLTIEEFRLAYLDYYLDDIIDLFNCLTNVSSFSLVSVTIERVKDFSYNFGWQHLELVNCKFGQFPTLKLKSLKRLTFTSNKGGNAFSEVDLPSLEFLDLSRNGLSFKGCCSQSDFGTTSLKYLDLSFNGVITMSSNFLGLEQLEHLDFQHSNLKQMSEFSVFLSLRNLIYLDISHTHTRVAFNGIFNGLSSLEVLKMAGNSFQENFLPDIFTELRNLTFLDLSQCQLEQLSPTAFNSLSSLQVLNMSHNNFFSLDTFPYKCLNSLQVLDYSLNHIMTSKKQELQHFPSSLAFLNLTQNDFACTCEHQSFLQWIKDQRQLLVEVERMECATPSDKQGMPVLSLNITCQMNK
Described as above. The note with it: both partners purified.

recombinant human TLR4 protein (ectodomain, Glu24-Lys631) (human), sequence (O00206 24-631): as above

In the case of “Staphylococcus aureus phenol-soluble modulin α2 (peptide)”, the Kd in test [1] was 3.24 µM. The same measure, in the same setting: the same measure for “Staphylococcus aureus phenol-soluble modulin α1 (peptide)”: 3.81 µM; for “Staphylococcus aureus phenol-soluble modulin β1 (peptide)”: 3.79 µM; for “Staphylococcus aureus phenol-soluble modulin α3 (peptide)”: 3 µM. Turning to “Staphylococcus aureus phenol-soluble modulin β2 (peptide)”, the Kd in test [1] was found to be 7.78 µM.

B1: recombinant disulfide HMGB1 protein (natural protein)
chain: MGKGDPKKPRGKMSSYAFFVQTCREEHKKKHPDASVNFSEFSKKCSERWKTMSAKEKGKFEDMAKADKARYEREMKTYIPPKGETKKKFKDPNAPKRPPSAFFLFCSEYRPKIKGEHPGLSIGDVAKKLGEMWNNTAADDKQPYEKKAAKLKEKYEKDIAAYRAKGKPDAAKKGVVKAEKSKKKKEEEEDEEDEEDEEEEEDEEDEDEEEDDDDE
modifications: disulfide bond between cysteines 23 and 45; reduced thiol on cysteine 106
notes: high mobility group box-1 protein; also called high mobility group box-1 protein; source: recombinant, provided by Kevin Tracey (The Feinstein Institute for Medical Research)
For B1, the Kd in test [2] stood at 9.2 µM.
